Values belong to the binder of their own block, whether it stands above or below them.
Key:
HLA-A*02:01 = target: T1, HLA-A*02:01 (human); experiment: experimental HLA-A2 peptide binding assay, format not described (data not shown)
T1 construct: also called HLA-A2; A2

[1] = target: T2, biotin-tagged HLA-A*03:01 monomers (immunAware) (human, biotin tag); experiment: flow cytometry bead assay: biotinylated HLA-A*03:01 monomer folded with peptide, captured on streptavidin beads, detected with anti-β2-microglobulin BBM.1; 1.2 nM complex (data not shown)
T2 construct: Bought monomers folded around the test peptide; also called HLA-A3; A3

binding result (HLA-A*02:01): binds
B1: SCG5186-195 (peptide)
peptide: YLQGQRLDNV

binding result (HLA-A*02:01): binds
B2: SCG5-009186-194 (peptide)
peptide: FLSGAVNRL
notes: also called SCG-009186-194

binding result [1]: binds
B3: SCG5-009193-201 (peptide)
peptide: RLKPSLVGK
